{"source": "patent US20240067944A1", "about": "(published 2024)", "binders": {"B1": {"name": "Cmpd #1 (monovalent anti-FX VHH polypeptide, VHH-1.1) (VHH)", "VHH": "EVQLVESGGGLVQPGGSLRLSCAASGSIGAFDAMGWYRQAPGKQRELVAGIMVSRGNTNYTDSVKGRFTISRDNAKNTVYLQMNSLKPEDTAVYYCKAVKRPGPGYLEVWGQGTLVTVSS", "notes": "No protractor"}}, "experiment_in_all_cases": "ELISA, biotinylated 12-mer peptide on streptavidin, 2 ug/mL FLAG-tagged VHH, anti-FLAG-HRP", "key": {"YDAADLDPTENP": {"target": "T1, YDAADLDPTENP (human)", "T1 peptide": "YDAADLDPTENP-biotin", "procedure": "(§1) To determine whether the binding epitope of the anti-FX VHH polypeptide designated “cmpd #1” are located inside the activation peptide (AP) of human FX (SEQ ID NO:2), an ELISA assay was setup. 41 unique 12-mer peptide fragments spanning the 52 residues of the activation peptide with one amino acid spacing were immobilized in microtiter plate wells followed by incubation with the VHH polypeptide to be tested, and detection of bound ligand was performed by addition of a secondary HRP-labelled antibody.\n(§2) The peptides were C-terminally conjugated to biotin and 50 μL of 1 μg/mL peptide solution was used for immobilization in discrete wells of the microtiter plate which was pre-coated with 1 μg/mL streptavidin. Each well was washed with washing buffer (10 mM Tris, 150 mM NaCl, 2.5 mM CaCl₂), 0.05% Tween 20, pH 8.60) followed by addition of 50 μL of 2 μg/mL FLAG-tagged anti-FX VHH polypeptide or IgG antibody to be tested. After 1 hour non-bound VHH polypeptide was washed off using washing buffer.\n(§3) Bound anti-FX activation peptide ligand was detected by first binding a HRP-labelled secondary antibody (for FLAG-tagged VHH polypeptide: Anti-FLAG mAb M2-Peroxidase (HRP) (Sigma Aldrich, US) for 1 hour, and then adding 100 μL TMB-1 ELISA substrate (Kem-En-Tec Diagnostics, Denmark)."}, "SSGEAPDSITWK": {"target": "T2, SSGEAPDSITWK (human)", "T2 peptide": "SSGEAPDSITWK-biotin", "procedure": "as §1, §2, §3"}, "SVAQATSSSGEA": {"target": "T3, SVAQATSSSGEA (human)", "T3 peptide": "SVAQATSSSGEA-biotin", "procedure": "as §1, §2, §3"}, "DSITWKPYDAAD": {"target": "T4, DSITWKPYDAAD (human)", "T4 peptide": "DSITWKPYDAAD-biotin", "procedure": "as §1, §2, §3"}, "QTQPERGDNNLT": {"target": "T5, QTQPERGDNNLT (human)", "T5 peptide": "QTQPERGDNNLT-biotin", "procedure": "as §1, §2, §3"}, "KPYDAADLDPTE": {"target": "T6, KPYDAADLDPTE (human)", "T6 peptide": "KPYDAADLDPTE-biotin", "procedure": "as §1, §2, §3"}, "EAPDSITWKPYD": {"target": "T7, EAPDSITWKPYD (human)", "T7 peptide": "EAPDSITWKPYD-biotin", "procedure": "as §1, §2, §3"}, "NQTQPERGDNNL": {"target": "T8, NQTQPERGDNNL (human)", "T8 peptide": "NQTQPERGDNNL-biotin", "procedure": "as §1, §2, §3"}, "PTENPFDLLDFN": {"target": "T9, PTENPFDLLDFN (human)", "T9 peptide": "PTENPFDLLDFN-biotin", "procedure": "as §1, §2, §3"}, "ENPFDLLDFNQT": {"target": "T10, ENPFDLLDFNQT (human)", "T10 peptide": "ENPFDLLDFNQT-biotin", "procedure": "as §1, §2, §3"}, "TSSSGEAPDSIT": {"target": "T11, TSSSGEAPDSIT (human)", "T11 peptide": "TSSSGEAPDSIT-biotin", "procedure": "as §1, §2, §3"}, "DPTENPFDLLDF": {"target": "T12, DPTENPFDLLDF (human)", "T12 peptide": "DPTENPFDLLDF-biotin", "procedure": "as §1, §2, §3"}, "VAQATSSSGEAP": {"target": "T13, VAQATSSSGEAP (human)", "T13 peptide": "VAQATSSSGEAP-biotin", "procedure": "as §1, §2, §3"}, "DLDPTENPFDLL": {"target": "T14, DLDPTENPFDLL (human)", "T14 peptide": "DLDPTENPFDLL-biotin", "procedure": "as §1, §2, §3"}, "TWKPYDAADLDP": {"target": "T15, TWKPYDAADLDP (human)", "T15 peptide": "TWKPYDAADLDP-biotin", "procedure": "as §1, §2, §3"}, "DLLDFNQTQPER": {"target": "T16, DLLDFNQTQPER (human)", "T16 peptide": "DLLDFNQTQPER-biotin", "procedure": "as §1, §2, §3"}, "DAADLDPTENPF": {"target": "T17, DAADLDPTENPF (human)", "T17 peptide": "DAADLDPTENPF-biotin", "procedure": "as §1, §2, §3"}, "SSSGEAPDSITW": {"target": "T18, SSSGEAPDSITW (human)", "T18 peptide": "SSSGEAPDSITW-biotin", "procedure": "as §1, §2, §3"}}, "note": "No end group written: not given here.", "data": [{"binder": "B1", "values": [{"measurement": "ELISA signal normalized relative to the background signal", "setting": "YDAADLDPTENP", "value": "0.87 relative to background"}, {"measurement": "ELISA signal normalized relative to the background signal", "setting": "SSGEAPDSITWK", "value": "0.88 relative to background"}, {"measurement": "ELISA signal normalized relative to the background signal", "setting": "SVAQATSSSGEA", "value": "0.96 relative to background"}, {"measurement": "ELISA signal normalized relative to the background signal", "setting": "DSITWKPYDAAD", "value": "1.08 relative to background"}, {"measurement": "ELISA signal normalized relative to the background signal", "setting": "QTQPERGDNNLT", "value": "0.88 relative to background"}, {"measurement": "ELISA signal normalized relative to the background signal", "setting": "KPYDAADLDPTE", "value": "0.8 relative to background"}, {"measurement": "ELISA signal normalized relative to the background signal", "setting": "EAPDSITWKPYD", "value": "0.97 relative to background"}, {"measurement": "ELISA signal normalized relative to the background signal", "setting": "NQTQPERGDNNL", "value": "0.92 relative to background"}, {"measurement": "ELISA signal normalized relative to the background signal", "setting": "PTENPFDLLDFN", "value": "4.58 relative to background"}, {"measurement": "ELISA signal normalized relative to the background signal", "setting": "ENPFDLLDFNQT", "value": "4 relative to background"}, {"measurement": "ELISA signal normalized relative to the background signal", "setting": "TSSSGEAPDSIT", "value": "0.77 relative to background"}, {"measurement": "ELISA signal normalized relative to the background signal", "setting": "DPTENPFDLLDF", "value": "4.16 relative to background"}, {"measurement": "ELISA signal normalized relative to the background signal", "setting": "VAQATSSSGEAP", "value": "1.02 relative to background"}, {"measurement": "ELISA signal normalized relative to the background signal", "setting": "DLDPTENPFDLL", "value": "1 relative to background"}, {"measurement": "ELISA signal normalized relative to the background signal", "setting": "TWKPYDAADLDP", "value": "1.13 relative to background"}, {"measurement": "ELISA signal normalized relative to the background signal", "setting": "DLLDFNQTQPER", "value": "3.08 relative to background"}, {"measurement": "ELISA signal normalized relative to the background signal", "setting": "DAADLDPTENPF", "value": "0.88 relative to background"}, {"measurement": "ELISA signal normalized relative to the background signal", "setting": "SSSGEAPDSITW", "value": "0.86 relative to background"}]}]}
